The results in this text go back to the Immune Epitope Database (IEDB).

Test in all cases: IEDB peptide-MHC binding, purified MHC/competitive/radioactivity; ≥ and ≤ were set here for values at or beyond the usual limits of such assays
For assay [1], the target named is HLA-A*02:06.
The target in assay [2] is HLA-A*02:01.
In assay [3] the target is HLA-A*02:03.
Assay [4] deals with HLA-A*02:02.
For assay [5], the target named is HLA-A*68:02.
[6] abbreviates: source organism: Hepacivirus hominis.
[7] abbreviates: source organism: Vaccinia virus WR.
Where [8] appears, read: source organism: Influenza A virus.

In the case of MLLAYLVRI, the concentration for half-maximal inhibition (IC50) (usually the concentration needed to halve the response being measured) in assay [1] (setting [6]) worked out at 0.005 µM; in assay [2] (setting [6]), 0.0033 µM; in assay [3] (setting [6]) it was 0.012 µM; in assay [4] (setting [6]), 0.0066 µM; in assay [5] (setting [6]), 1.83 µM.

With MLLNVQTLI, the IC50 in assay [1] (setting [7]) came to 0.00022 µM; in assay [2] (setting [7]) it was 0.0029 µM; in assay [3] (setting [7]), 0.00025 µM; in assay [4] (setting [7]), 0.00017 µM; in assay [5] (setting [7]) it was 0.216 µM.

Consider MLLTFLTSL, for which the IC50 in assay [1] (source organism: SARS-CoV1) is 0.0036 µM; in assay [2] (source organism: SARS-CoV1) it was 0.0016 µM; in assay [3] (source organism: SARS-CoV1) it was 0.0048 µM; in assay [4] (source organism: SARS-CoV1) it was 0.0062 µM; in assay [5] (source organism: SARS-CoV1), 0.923 µM.

Take MLLTFLTSLL: the IC50 worked out at 0.025 µM in assay [1] (source organism: SARS-CoV1); 0.011 µM in assay [2] (source organism: SARS-CoV1); 0.0073 µM in assay [3] (source organism: SARS-CoV1); 0.00073 µM in assay [4] (source organism: SARS-CoV1); 0.299 µM in assay [5] (source organism: SARS-CoV1).

With MLNRVQILM, the half-maximal inhibitory concentration (IC50) was 2.56 µM in assay [1] (setting [7]); 0.028 µM in assay [2] (setting [7]); 0.027 µM in assay [3] (setting [7]); 0.0048 µM in assay [4] (setting [7]); 4.2 µM in assay [5] (setting [7]).

As for MLPESDLDKV, the half-maximal inhibitory concentration (IC50) was found to be 0.0044 µM in assay [1] (setting [7]); 0.011 µM in assay [2] (setting [7]); 1.77 µM in assay [3] (setting [7]); 0.0032 µM in assay [4] (setting [7]); 0.196 µM in assay [5] (setting [7]).

Consider MLSVVGFLV, for which the IC50 amounted to 0.116 µM in assay [1] (source organism: SARS-CoV1); 0.0077 µM in assay [2] (source organism: SARS-CoV1); 0.0035 µM in assay [3] (source organism: SARS-CoV1); 0.001 µM in assay [4] (source organism: SARS-CoV1); 0.092 µM in assay [5] (source organism: SARS-CoV1).

Regarding MLTNAISSRV, the concentration for half-maximal inhibition (IC50) in assay [1] (setting [7]) turned out to be 0.224 µM; in assay [2] (setting [7]), 0.208 µM; in assay [3] (setting [7]) it was 0.00011 µM; in assay [4] (setting [7]) it was 0.053 µM; in assay [5] (setting [7]), 0.101 µM.

For the sequence MLVCGDDLVV, the 50% inhibitory concentration (IC50) was 0.157 µM in assay [1] (setting [6]); 0.097 µM in assay [2] (setting [6]); 0.102 µM in assay [3] (setting [6]); 0.045 µM in assay [4] (setting [6]); 3.06 µM in assay [5] (setting [6]).

Regarding MLWCKDGHV, the 50% inhibitory concentration (IC50) in assay [1] (source organism: SARS-CoV1) was 0.362 µM; in assay [2] (source organism: SARS-CoV1) it was 0.03 µM; in assay [3] (source organism: SARS-CoV1), 0.011 µM; in assay [4] (source organism: SARS-CoV1) it was 0.01 µM; in assay [5] (source organism: SARS-CoV1), 0.074 µM.

For MMMNWSPTTA, the 50% inhibitory concentration (IC50) is 0.849 µM in assay [1] (setting [6]); 0.034 µM in assay [2] (setting [6]); 0.0061 µM in assay [3] (setting [6]); 0.014 µM in assay [4] (setting [6]); 1.14 µM in assay [5] (setting [6]).

On to MMNERDVSV, for which the IC50 in assay [1] (setting [7]) came out at 0.064 µM; in assay [2] (setting [7]) it was 0.0011 µM; in assay [3] (setting [7]), 0.00027 µM; in assay [4] (setting [7]), 0.00044 µM; in assay [5] (setting [7]), 0.566 µM.

MMNITRLEVI: the concentration for half-maximal inhibition (IC50) in assay [1] (setting [7]) was 0.134 µM; in assay [2] (setting [7]), 0.144 µM; in assay [3] (setting [7]) it was 0.026 µM; in assay [4] (setting [7]) it was 0.085 µM; in assay [5] (setting [7]) it was 0.428 µM.

In the case of MMVILPDKI, the 50% inhibitory concentration (IC50) in assay [1] (setting [7]) came to 0.909 µM; in assay [2] (setting [7]), 0.161 µM; in assay [3] (setting [7]), 0.016 µM; in assay [4] (setting [7]), 0.069 µM; in assay [5] (setting [7]) it was 1.63 µM.

Turning to MQALQLLLEV, the IC50 was 0.048 µM in assay [1] (setting [8]); 0.067 µM in assay [2] (setting [8]); 0.013 µM in assay [3] (setting [8]); 0.147 µM in assay [4] (setting [8]); 0.615 µM in assay [5] (setting [8]).

For MQIAILVTTV, the half-maximal inhibitory concentration (IC50) came out at 0.061 µM in assay [1] (setting [8]); 0.079 µM in assay [2] (setting [8]); 0.006 µM in assay [3] (setting [8]); 0.04 µM in assay [4] (setting [8]); 0.129 µM in assay [5] (setting [8]).

As for MQIRGFVYFV, the IC50 worked out at 0.01 µM in assay [1] (setting [8]); 0.015 µM in assay [2] (setting [8]); 0.0036 µM in assay [3] (setting [8]); 0.019 µM in assay [4] (setting [8]); 0.025 µM in assay [5] (setting [8]).

Consider MQKFTILEYL, for which the IC50 in assay [1] (setting [7]) stood at 0.909 µM; in assay [2] (setting [7]) it was 3.73 µM; in assay [3] (setting [7]), 0.279 µM; in assay [4] (setting [7]) it was 0.164 µM; in assay [5] (setting [7]) it was 3.73 µM.
